Test results as given in patent US20030082736A1 (IMMUNEX, published 2003).

Target: T1, TNF (125I-TNF) (human, UniProt P01375 77-233, limits assumed, radioiodinated (125I) where used as labeled ligand)
T1 construct: It may be the same FLAG-TNFα as m1; also called 125I-labeled TNF
Experiment: TNF binding assay on product of transfected COS-7 cells

T1 sequence (P01375 77-233 limits assumed): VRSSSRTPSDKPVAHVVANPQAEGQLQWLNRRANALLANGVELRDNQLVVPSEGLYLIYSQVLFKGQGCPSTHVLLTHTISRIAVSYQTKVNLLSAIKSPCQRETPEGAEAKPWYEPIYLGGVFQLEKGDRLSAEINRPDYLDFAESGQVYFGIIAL

B1: soluble huTNF-RΔ142 (receptor)
chain: LPAQVAFTPYAPEPGSTCRLREYYDQTAQMCCSKCSPGQHAKVFCTKTSDTVCDSCEDSTYTQLWNWVPECLSCGSRCSSDQVETQACTREQNRICTCRPGWYCALSKQEGCRLCAPLRKCRPGFGVARPGTETSDVVCKPC
notes: Transfected into COS-7 cells; also called huTNF-R?142; product of psolTNFRΔ142/CAVNOT
binding result: no binding
